The target in assay [1] is OVA.β2m.Kb SCT Y84A (mouse) (UniProt P01887).
The target is the same in assay [2]. This is another data set of the same source.
Assay [3] deals with OVAp5Y.β2m.Kb Y84A SCT (mouse) (UniProt P01887).
Assay [4] concerns the target native K^b on cells, loaded with endogenous peptides (mouse) (UniProt P01887). In words: cell-based or functional assay.

Like-named read-outs stand apart in the source and are kept apart here.

For the substance SIYR peptide, the IC50 in assay [1] was determined as 1.25 µM; in assay [2] it was 125 µM; in assay [3], 40 µM.

For the substance VSV8 peptide, the VSV8 concentration that activates the N15 hybridoma; LM1.8 cells (FIG. 11C) in assay [4] turned out to be 1 nM.

Usually IC50 stands for the concentration needed to halve the response being measured.

For the origin of these results see US20090117153A1.
